Measured values: paper PMC7545742, “A Toolbox for Site-Specific Labeling of RecQ Helicase With a Single Fluorophore Used in the Single-Molecule Assay”

Columns and labels:
[1] = molecular target: T1, RecQ-Cy5 (sortase A ligation of RecQ516-LPETG and Cy5-GGG-HRDC) (Escherichia coli, UniProt P15043 1-516+=LPETGGG+524-609+=VD, E609C;internal_change); test: smFRET; 5 nM RecQ-Cy5, free protein washed off; EFRET 0 to ~0.5; duration 5.17 +/- 0.82 s; smFRET on DNA with biotinylated strand in reaction chamber; 5 nM RecQ-Cy5 bound 2 min, then washed; reaction buffer composition, pH and temperature not in the material; conditions: protein: recombinant; tags: Cy5-maleimide at C610; label: Cy3 3' of strand 1; biotin 3' of strand 2; 3' overhang 10 nt, 18 bp stem; one A:G mismatch (strand 1 nt 8)
[2] = molecular target: wild-type RecQ helicase (Escherichia coli, UniProt P15043 1-609); test: smFRET; EFRET 0.92 to 0.54; bound dwell time 4.47 +/- 0.23 s; smFRET on DNA with biotinylated strand in reaction chamber; 5 nM RecQ-Cy5 bound 2 min, then washed; reaction buffer composition, pH and temperature not in the material; conditions: protein: recombinant; label: Cy3 3' of strand 1; internal Cy5 after nt 4 and biotin 3' of strand 2; 3' overhang 10 nt, 16 bp stem; one A:G mismatch (strand 1 nt 8)
[3] = molecular target: T1, RecQ-Cy5 (sortase A ligation of …); test: smFRET; 5 nM RecQ-Cy5, free protein washed off; EFRET 0 to ~0.84; duration 4.65 +/- 0.17 s; HRDC contacts 3' end; smFRET on DNA with biotinylated strand in reaction chamber; 5 nM RecQ-Cy5 bound 2 min, then washed; reaction buffer composition, pH and temperature not in the material; conditions: protein: recombinant; tags: Cy5-maleimide at C610; label: Cy3 3' of strand 1; biotin 3' of strand 2; 3' overhang 15 nt, 18 bp stem; one A:G mismatch (strand 1 nt 8)
[4] = molecular target: T1, RecQ-Cy5 (sortase A ligation of …); test: smFRET; RecQ-Cy5, same conditions (5 nM); EFRET 0 to ~0.92; duration 5.19 +/- 0.28 s; HRDC contacts 5' end; smFRET on DNA with biotinylated strand in reaction chamber; 5 nM RecQ-Cy5 bound 2 min, then washed; reaction buffer composition, pH and temperature not in the material; conditions: protein: recombinant; tags: Cy5-maleimide at C610; label: Cy3 5' of strand 1; biotin 5' of strand 2; fork 1:2, 17 bp stem, 5' arm 7 nt (strand 1), 3' arm 10 nt (strand 2)

B1: 3' 10-nt overhang DNA, Cy3 (mixed)
DNA 1: AATCCGTAGAGCAGAGGTGTGTGTGGTG
DNA 2: ACCTCTGCTCGACGGATT
modifications: none
B1: binds [1].

B2: 16 bp with 3' 10-nt overhang, Cy3/Cy5 (mixed)
DNA 1: AATCCGTAGAGCAGAGGTGTGTGTGG
DNA 2: CTCTGCTCGACGGATT
modifications: none
B2: binds [2].

B3: 3' 15-nt overhang DNA, Cy3 (mixed)
DNA 1: AATCCGTAGAGCAGAGGTGTGTGTGGTGTTTTT
DNA 2: ACCTCTGCTCGACGGATT
modifications: none
B3: binds [3].

B4: fork DNA, 10-nt 3' overhang and 7-nt 5' overhang (mixed)
DNA 1: TTTTTTTATGTATGACAAGGAAGG
DNA 2: CCTTCCTTGTCATACATAAATTTTTTT
modifications: none
B4: binds [4].
